Substitutions are numbered along the chain they refer to. Where “and” joins values, the source holds several entries; their conditions need not be identical. Equal entries are not always repeated. Where two headings read alike, the source gives them in different places. One block for each binder: values may come before it.
Columns and labels:
[1] = target: T1, recombinant human IL-23 (p19/p40) (human, UniProt Q9NPF7 20-189; P29460 23-328); experiment: comp alpha-screen hIL-23
T1 construct: Bought heterodimer (R&D Systems or eBioscience); biotinylated in the alpha-screens; also called hIL-23
T1 sequence (looked up) 1: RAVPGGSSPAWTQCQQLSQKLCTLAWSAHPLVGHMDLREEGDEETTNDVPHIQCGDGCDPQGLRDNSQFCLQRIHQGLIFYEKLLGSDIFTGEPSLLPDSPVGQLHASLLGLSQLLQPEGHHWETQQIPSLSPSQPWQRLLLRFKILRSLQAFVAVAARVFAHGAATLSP
T1 sequence (looked up) 2: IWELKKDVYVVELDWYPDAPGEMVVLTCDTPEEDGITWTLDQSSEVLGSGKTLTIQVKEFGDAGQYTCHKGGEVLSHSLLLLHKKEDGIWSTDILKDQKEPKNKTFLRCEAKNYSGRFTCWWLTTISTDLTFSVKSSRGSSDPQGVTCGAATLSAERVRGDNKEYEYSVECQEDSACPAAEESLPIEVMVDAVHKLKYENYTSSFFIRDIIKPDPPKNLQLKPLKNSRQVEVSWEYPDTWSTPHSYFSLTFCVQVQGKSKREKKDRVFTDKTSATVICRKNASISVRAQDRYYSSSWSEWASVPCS

[2] = target: T1, recombinant human IL-23 (p19/p40); experiment: 'potency assay', not specified (probably the inhibition ELISA of Example 34)
[3] = target: T1, recombinant human IL-23 (p19/p40); experiment: cell-based or functional assay
[4] = target: T1, recombinant human IL-23 (p19/p40); experiment: SPR Biacore, hIL-23 on chip
Method: Nanobody binding was assessed at one concentration (100 nM). Each Nanobody was injected for 4 minutes at a flow rate of 45 μl/min to allow binding to chip-bound antigen. Next, binding buffer without Nanobody was sent over the chip at the same flow rate to allow spontaneous dissociation of bound Nanobody.

cynomolgus IL-23 [5] = target: T2, cynomolgus IL-23 (cynomolgus); experiment: SPR Biacore, cyno IL-23 on chip
T2 construct: also called cyno IL-23; cIL-23

[6] = target: T1, recombinant human IL-23 (p19/p40); experiment: cell-based or functional assay; remark: listed apart in the source
[7] = target: T1, recombinant human IL-23 (p19/p40); experiment: cell-based or functional assay; remark: listed apart in the source
[8] = target: T1, recombinant human IL-23 (p19/p40); experiment: cell-based or functional assay; remark: listed apart in the source
cynomolgus IL-23 [9] = target: T2, cynomolgus IL-23; experiment: cell-based or functional assay
cynomolgus IL-23 [10] = target: T2, cynomolgus IL-23; experiment: alpha-screen, cIL-23/IL-23R
[11] = target: T1, recombinant human IL-23 (p19/p40); experiment: alpha-screen, hIL-23/IL-23R
[12] = target: T1, recombinant human IL-23 (p19/p40); experiment: SPR Biacore 3000, hIL-23 on chip
Method: Binding kinetics of the second round variants are in depth analysed by Surface Plasmon Resonance (Biacore 3000). […] Nanobody binding was assessed at one concentration (100 nM). Each Nanobody was injected for 4 minutes at a flow rate of 45 μl/min to allow binding to chip-bound antigen. Next, binding buffer without Nanobody was sent over the chip at the same flow rate to allow spontaneous dissociation of bound Nanobody.

[13] = target: T1, recombinant human IL-23 (p19/p40); experiment: SPR Biacore, hIL-23
[14] = target: T1, recombinant human IL-23 (p19/p40); experiment: SPR Biacore, hIL-23; remark: listed apart in the source
[15] = target: T1, recombinant human IL-23 (p19/p40); experiment: SPR Biacore, eBiosc hIL-23
[16] = target: T1, recombinant human IL-23 (p19/p40); experiment: SPR Biacore, hIL-23; remark: listed apart in the source
[17] = target: T1, recombinant human IL-23 (p19/p40); experiment: SPR Biacore, hIL-23; remark: listed apart in the source
cynomolgus IL-23 [18] = target: T2, cynomolgus IL-23; experiment: cell-based or functional assay; remark: listed apart in the source
[19] = target: T1, recombinant human IL-23 (p19/p40); experiment: cell-based or functional assay; remark: listed apart in the source
[20] = target: T1, recombinant human IL-23 (p19/p40); experiment: cell-based or functional assay; remark: listed apart in the source
cynomolgus IL-23 [21] = target: T2, cynomolgus IL-23; experiment: cell-based or functional assay; remark: listed apart in the source
[22] = target: T1, recombinant human IL-23 (p19/p40); experiment: cell-based or functional assay; remark: listed apart in the source
[23] = target: T1, recombinant human IL-23 (p19/p40); experiment: cell-based or functional assay; remark: listed apart in the source

B1: P23IL37D5v16 (VHH)
VHH: EVQLLESGGGLVQPGGSLRLSCAASGFTLDYLAIGWFRQAPGKGREGVSCVSSSGQYTYYADSVKGRFTISRDNSKNTVYLQMNSLRPEDTAVYYCATDPECYRVRGYYNGEYDYWGQGTLVTVSS
notes: Humanization variant of 37D5
IC50 [1]: 0.044 nM | IC50 [2]: 0.0888 nM

B2: P23IL-121A2 (VHH)
VHH: EVQLVESGGGLVQAGGSLRLSCAASGSIFNFNYMGWFRQAPGKEREFVAAIRWSGSSTYYADSVKGRFTISRDDAKNTVALQMNSLKPEDTAIYYCALRKGIPYSTSDRVIKGVNDYDYWGQGTQVTVSS
IC50, splenocyte assay (mIL-17) [3]: ~1.5 nM

B3: P23IL 22D10 (VHH)
VHH: EVQLVESGGGLVQAGASLRLSCAASGRTFRSYNMGWLRQAPGKEREFVATISWNAGIPYYADSVKGRFTISRDNAKNTVYLQMNSLKPEDTAVYYCAASNSWSSSARFYDYWGQGTQVTVSS
notes: p40- Nanobody
koff [4]: 0.001 s⁻¹ | koff (cynomolgus IL-23 [5]): 0.0001 s⁻¹

B6: P23IL 84G1 (VHH)
VHH: EVQLVESGGGMVQAGGSLRLSCTASGLTDNSYAMGWFRRAPGKEREFLTGLTLSGGSTYYADSVKGRFTTSRDSQKNTVSLQMNSLKPEDTAVYYCAANRFGYGSAAYTPDNYNYWAQGTQVTVSS
notes: p40- Nanobody
koff [4]: 0.0002 s⁻¹ | koff (cynomolgus IL-23 [5]): 0.0024 s⁻¹

B8: P23IL119A3v16 (VHH)
VHH: EVQLLESGGGLVQPGGSLRLSCAASGRIFSLPASGNIFNLLTIAWYRQAPGKGRELVATINSGSRTYYADSVKGRFTISRDNSKKTLYLQMNSLRPEDTAVYYCQTSGSGSPNFWGQGTLVTVSS
notes: Final humanization variant of 119A3
IC50, splenocyte assay hIL-23 [8]: 45.1 nM | IC50, splenocyte assay cIL-23 (cynomolgus IL-23 [9]): 82.6 nM | IC50 (cynomolgus IL-23 [10]): 0.7 nM | IC50 [11]: 1.24 nM | koff [12]: 0.0055 s⁻¹ and 0.0019 s⁻¹

B9: P23IL81G2-BASIC (VHH, name in Kabat numbering)
VHH: EVQLVESGGGLVQPGGSLRLSCIASGLPFSTKSMGWFRQAPGKGREFVARISPGGTSRYYGDFVKGRFAISRDNAKNTTWLQMNSLKAEDTAVYYCASGERSTYIGSNYYRTNEYDYWGTGTLVTVSS
notes: The sentence giving the two substitutions prints 'P23IL81A12basic' within the 81G2 paragraph
koff [13]: 0.00032 s⁻¹

B10: P23IL81G2v11 (VHH)
VHH: B9 VHH with V5L, I23A, A49S, A69T, A75S, T79L, W80Y, K87R, T120Q
notes: Final humanization variant of 81G2
koff [14]: 0.00031 s⁻¹ | kon [14]: 610000 M⁻¹ s⁻¹ | Kd [15]: 0.51 nM

B12: P23IL81A12 (VHH)
VHH: EVQLVESGGGLVQAGGSLRLSCAASGRTLSSYAMGWFRQAPGKEREFVARISQGGTAIYYADSVKGRFTISRDNAKNTVYLQMNSLKPEDTAVYYCAKDPSPYYRGSAYLLSGSYDSWGQGTQVTVSS
notes: p19- Nanobody
koff [16]: 0.00022 s⁻¹ | Kd [17]: 0.38 nM | koff [17]: 0.00021 s⁻¹ | kon [17]: 560000 M⁻¹ s⁻¹

B15: P23IL119A3-35GS-81G2-GGGC-PEG40 linear (bispecific antibody)
chain: EVQLVESGGGLVQAGGSLRLSCAASGRIFSLPASGNIFNLLTIAWHRQAPGMQRELVATINSGSRTNYADSVKGRFTISRDNAQKTVYLQMNNLKPEDTAVYYCQTSGSGSPNFWGQGTQVTVSSGGGGSGGGGSGGGGSGGGGSGGGGSGGGGSGGGGSEVQLVESGGGLVQPGGSLRLSCIASGLPFSTKSMGWFRQAPGKEREFVARISPGGTSRYYGDFVKGRFAISRDNAKNTTWLQMNSLKAEDTAVYYCASGERSTYIGSNYYRTNEYDYWGTGTQVTVSSGGGC
modifications: linear mPEG40 (maleimide) on the C-terminal Cys of GGGC
IC50, splenocyte assay, 19 pM hIL-23 [7]: 7.1 pM | IC50, splenocyte assay, 3.8 pM cIL-23 (cynomolgus IL-23 [18]): 4.7 pM | IC50, BAF3 proliferation assay, 76 pM hIL-23 [19]: 58.5 pM | IC50, splenocyte assay, 19 pM hIL-23 [20]: 7.1 pM | IC50, splenocyte assay, 3.8 pM cIL-23 (cynomolgus IL-23 [21]): 4.7 pM | IC50, BA/F3 proliferation assay, 76 pM hIL-23 [22]: 71 pM

B16: P23IL119A3-35GS-81G2-GGGC-PEG40 branched (bispecific antibody)
chain: B15 chain
modifications: branched mPEG40 (maleimide) on the C-terminal Cys of GGGC
IC50, splenocyte assay, 19 pM hIL-23 [7]: 5.6 pM | IC50, splenocyte assay, 3.8 pM cIL-23 (cynomolgus IL-23 [18]): 5.3 pM | IC50, BAF3 proliferation assay, 76 pM hIL-23 [19]: 61.2 pM

B17: P23IL-121A2-35GS-81G2 (bispecific antibody)
chain: EVQLVESGGGLVQAGGSLRLSCAASGSIFNFNYMGWFRQAPGKEREFVAAIRWSGSSTYYADSVKGRFTISRDDAKNTVALQMNSLKPEDTAIYYCALRKGIPYSTSDRVIKGVNDYDYWGQGTQVTVSSGGGGSGGGGSGGGGSGGGGSGGGGSGGGGSGGGGSEVQLVESGGGLVQPGGSLRLSCIASGLPFSTKSMGWFRQAPGKEREFVARISPGGTSRYYGDFVKGRFAISRDNAKNTTWLQMNSLKAEDTAVYYCASGERSTYIGSNYYRTNEYDYWGTGTQVTVSS
IC50, splenocyte assay (mIL-17) [3]: ~0.09 nM | IC50, splenocyte assay, 19 pM hIL-23 [23]: 94 pM | IC50, splenocyte assay, 19 pM hIL-23 [7]: 154 pM

Second part, the binder after the results:

koff [4]: 0.00059 s⁻¹ | koff (cynomolgus IL-23 [5]): 0.012 s⁻¹
B4: P23IL 81A1 (VHH)
VHH: EVQLVESGGGLVQTGGSLRLSCAASVINFRLADMDWYRQALGKQRELVASISTGYRTNYADFVKGRFTISRDNAKNTVYLQMDSLKPEDTAVYYCAARDLRGLRVDYWGQGTQVTVSS

koff [4]: 9.7e-05 s⁻¹ | koff (cynomolgus IL-23 [5]): 0.000105 s⁻¹ and 7.9e-05 s⁻¹
B5: P23IL80D10 (VHH)
VHH: EVQLVESGGGLVQAGGSLRLSCAASGRTFEGNPMGWFRQASGKKREFVASIDWSGGITSYADSVKGRFTISRDNAKNTVYLQMNSLKPEDTAVYYCAASARFGSGSYYDLMYDYWGQGTQVTVSS
notes: p40- Nanobody

IC50, splenocyte assay (mIL-17) [3]: 0.03 to 0.06 nM | IC50, splenocyte assay, 37 pM hIL-23 [6]: 42 pM | IC50, splenocyte assay, 19 pM hIL-23 [7]: 26 pM
B7: P23IL-121A2-35GS-119G7 (bispecific antibody)
chain: EVQLVESGGGLVQAGGSLRLSCAASGSIFNFNYMGWFRQAPGKEREFVAAIRWSGSSTYYADSVKGRFTISRDDAKNTVALQMNSLKPEDTAIYYCALRKGIPYSTSDRVIKGVNDYDYWGQGTQVTVSSGGGGSGGGGSGGGGSGGGGSGGGGSGGGGSGGGGSEVQLVESGGGLVQAGGSLTLSCAVSGLTFNNYAMGWFRQVPGKEREFVAAISRSGLRTFYSDSVKGRFTISRDSAKSTVYVQMNNLKPEDTAVYFCAADRRTYYSEGPSLTDTLRYDYWGQGTQVTVSS

koff [13]: 0.00034 s⁻¹ | koff [14]: 0.00039 s⁻¹ | kon [14]: 520000 M⁻¹ s⁻¹ | Kd [15]: 0.75 nM
B11: P23IL81G2 (VHH)
VHH: B9 VHH with G44E, L123Q
notes: p19- Nanobody

koff [16]: 0.00024 s⁻¹
B13: P23IL81A12-BASIC (VHH)
VHH: B12 VHH with A14P, V79L, K87R, Q123L

IC50, splenocyte assay, 37 pM hIL-23 [6]: 4760 pM
B14: P23IL-121A2-9GS-119G7 (bispecific antibody)
chain: EVQLVESGGGLVQAGGSLRLSCAASGSIFNFNYMGWFRQAPGKEREFVAAIRWSGSSTYYADSVKGRFTISRDDAKNTVALQMNSLKPEDTAIYYCALRKGIPYSTSDRVIKGVNDYDYWGQGTQVTVSSGGGGSGGGSEVQLVESGGGLVQAGGSLTLSCAVSGLTFNNYAMGWFRQVPGKEREFVAAISRSGLRTFYSDSVKGRFTISRDSAKSTVYVQMNNLKPEDTAVYFCAADRRTYYSEGPSLTDTLRYDYWGQGTQVTVSS

From patent US20110053865A1 (Ablynx, published 2011)
